The labels stand for the following.
B1: L10 (peptide)
peptide: NTRTAKGHYFVTTFYRNG
notes: source: synthetic peptide (Apeptide, Shanghai; purity >95%)
B2: L26 (peptide)
peptide: DEIVKELRSRYNISTEKSPILKMHIDGDLKGSSVGYRKLEIDFSKRENSKLSVIEFLSYKPAKK
notes: as for B1
B3: L21 (peptide)
peptide: ENFKFFGQYANLKELRK
notes: as for B1
B4: L15 (peptide)
peptide: TAKGHYFVTTFYRNG
notes: as for B1
B5: L13 (peptide)
peptide: GHYFVTTFY
notes: as for B1
B6: L16 (peptide)
peptide: NYKIEMKNNKIILLD
notes: as for B1

This test deals with T1, recombinant Hsp90α (human, UniProt P07900 1-732).
T1 construct: source: bought: Abcam (recombinant)
As to the kind of experiment: far-Western, overlay or dot blot. The settings on record: both partners purified.
Turning to B1, the binding result is given as “binds”.
As for B2, the binding result is “binds”.
Then B3, with “binds”; and B4, with “binds”.
In the case of B5, the binding result is “binds”.
Take B6: the binding result is given as “binds”.
